Consider 8 proteins from patent US20230183713A1, “SITE-SPECIFIC RECOMBINASES FOR EFFICIENT AND SPECIFIC GENOME EDITING” (TECHNISCHE UNIVERSITÄt DRESDEN, published 2023).

In data set [1] the target is T1, Cre recombinase monomer with Q311R mutation.
T1 chain: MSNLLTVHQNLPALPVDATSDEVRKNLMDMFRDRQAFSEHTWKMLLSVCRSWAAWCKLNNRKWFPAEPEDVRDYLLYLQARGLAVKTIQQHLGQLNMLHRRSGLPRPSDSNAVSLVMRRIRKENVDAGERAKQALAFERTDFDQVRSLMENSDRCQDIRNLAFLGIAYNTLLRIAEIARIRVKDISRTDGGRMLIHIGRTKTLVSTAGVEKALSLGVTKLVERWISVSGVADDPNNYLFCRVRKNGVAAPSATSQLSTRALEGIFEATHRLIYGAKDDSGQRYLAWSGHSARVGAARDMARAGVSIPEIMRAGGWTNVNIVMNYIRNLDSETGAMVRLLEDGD

In data set [2] the target is T2, Cre recombinase monomer with Y324T mutation.
T2 chain: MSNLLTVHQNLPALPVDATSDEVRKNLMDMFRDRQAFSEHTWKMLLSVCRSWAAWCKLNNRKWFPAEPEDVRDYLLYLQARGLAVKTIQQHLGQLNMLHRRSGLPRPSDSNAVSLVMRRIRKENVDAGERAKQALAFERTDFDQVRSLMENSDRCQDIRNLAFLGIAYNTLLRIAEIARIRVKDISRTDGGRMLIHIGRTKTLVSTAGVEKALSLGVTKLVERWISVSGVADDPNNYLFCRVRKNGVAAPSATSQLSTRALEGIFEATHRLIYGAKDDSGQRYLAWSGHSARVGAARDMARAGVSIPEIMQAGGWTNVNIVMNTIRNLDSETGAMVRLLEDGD

The target in data set [3] is T3, Cre recombinase monomer with W315I mutation.
T3 chain: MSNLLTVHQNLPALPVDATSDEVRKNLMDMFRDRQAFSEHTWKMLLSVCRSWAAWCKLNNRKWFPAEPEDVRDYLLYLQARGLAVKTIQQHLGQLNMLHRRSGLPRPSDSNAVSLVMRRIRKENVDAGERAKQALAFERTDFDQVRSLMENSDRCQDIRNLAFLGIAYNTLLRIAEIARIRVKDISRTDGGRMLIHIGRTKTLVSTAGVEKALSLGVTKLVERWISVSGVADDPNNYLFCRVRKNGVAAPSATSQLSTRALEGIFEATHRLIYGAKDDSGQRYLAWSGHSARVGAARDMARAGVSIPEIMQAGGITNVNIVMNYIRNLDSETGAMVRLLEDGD

The target in data set [4] is T4, Cre recombinase monomer with W315M mutation.
T4 chain: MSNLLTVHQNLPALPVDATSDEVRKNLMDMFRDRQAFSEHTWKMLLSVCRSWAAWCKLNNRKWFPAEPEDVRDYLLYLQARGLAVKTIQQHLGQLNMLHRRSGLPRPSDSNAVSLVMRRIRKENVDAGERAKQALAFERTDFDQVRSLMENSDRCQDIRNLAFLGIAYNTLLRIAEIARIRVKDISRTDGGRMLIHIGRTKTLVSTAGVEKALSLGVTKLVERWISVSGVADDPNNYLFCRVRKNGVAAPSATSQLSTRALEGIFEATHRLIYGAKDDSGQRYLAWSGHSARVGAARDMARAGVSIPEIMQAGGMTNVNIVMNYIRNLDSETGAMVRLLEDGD

Data set [5] concerns the target T5, Cre recombinase monomer with Y324V mutation.
T5 chain: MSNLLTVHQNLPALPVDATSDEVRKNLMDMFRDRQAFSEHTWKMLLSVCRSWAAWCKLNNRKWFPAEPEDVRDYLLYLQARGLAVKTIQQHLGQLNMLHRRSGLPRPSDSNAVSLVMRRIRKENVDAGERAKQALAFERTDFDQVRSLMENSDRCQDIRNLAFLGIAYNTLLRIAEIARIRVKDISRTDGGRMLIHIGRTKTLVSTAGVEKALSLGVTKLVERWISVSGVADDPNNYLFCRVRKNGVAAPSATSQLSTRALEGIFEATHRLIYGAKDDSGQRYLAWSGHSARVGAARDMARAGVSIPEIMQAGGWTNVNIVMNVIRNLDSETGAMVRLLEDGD

The target of data set [6] is T6, Cre recombinase monomer with Y324F mutation.
T6 chain: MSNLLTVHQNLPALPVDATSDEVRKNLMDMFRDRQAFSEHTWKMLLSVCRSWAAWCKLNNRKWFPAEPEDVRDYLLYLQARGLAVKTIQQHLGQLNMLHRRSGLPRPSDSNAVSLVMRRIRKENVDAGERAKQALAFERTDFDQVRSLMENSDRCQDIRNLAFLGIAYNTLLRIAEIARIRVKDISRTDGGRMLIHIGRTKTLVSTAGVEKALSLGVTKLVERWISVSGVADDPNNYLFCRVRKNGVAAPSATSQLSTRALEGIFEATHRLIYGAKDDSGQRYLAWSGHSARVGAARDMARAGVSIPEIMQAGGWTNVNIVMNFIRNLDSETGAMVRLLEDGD

B1: Cre recombinase monomer with K201L mutation (protein)
chain: MSNLLTVHQNLPALPVDATSDEVRKNLMDMFRDRQAFSEHTWKMLLSVCRSWAAWCKLNNRKWFPAEPEDVRDYLLYLQARGLAVKTIQQHLGQLNMLHRRSGLPRPSDSNAVSLVMRRIRKENVDAGERAKQALAFERTDFDQVRSLMENSDRCQDIRNLAFLGIAYNTLLRIAEIARIRVKDISRTDGGRMLIHIGRTLTLVSTAGVEKALSLGVTKLVERWISVSGVADDPNNYLFCRVRKNGVAAPSATSQLSTRALEGIFEATHRLIYGAKDDSGQRYLAWSGHSARVGAARDMARAGVSIPEIMQAGGWTNVNIVMNYIRNLDSETGAMVRLLEDGD
As to B1, the “Median dimer activity (recombination on loxP)” value (shortened to “Median dimer activity”) amounted to 92% in data set [1] and 25% in data set [2].

B2: Cre recombinase monomer with R292M mutation (protein)
chain: MSNLLTVHQNLPALPVDATSDEVRKNLMDMFRDRQAFSEHTWKMLLSVCRSWAAWCKLNNRKWFPAEPEDVRDYLLYLQARGLAVKTIQQHLGQLNMLHRRSGLPRPSDSNAVSLVMRRIRKENVDAGERAKQALAFERTDFDQVRSLMENSDRCQDIRNLAFLGIAYNTLLRIAEIARIRVKDISRTDGGRMLIHIGRTKTLVSTAGVEKALSLGVTKLVERWISVSGVADDPNNYLFCRVRKNGVAAPSATSQLSTRALEGIFEATHRLIYGAKDDSGQRYLAWSGHSAMVGAARDMARAGVSIPEIMQAGGWTNVNIVMNYIRNLDSETGAMVRLLEDGD
As to B2, the “Median dimer activity” value was found to be 96% in data set [1] and 42% in data set [3].

B3: Cre recombinase monomer with R173P mutation (protein)
chain: MSNLLTVHQNLPALPVDATSDEVRKNLMDMFRDRQAFSEHTWKMLLSVCRSWAAWCKLNNRKWFPAEPEDVRDYLLYLQARGLAVKTIQQHLGQLNMLHRRSGLPRPSDSNAVSLVMRRIRKENVDAGERAKQALAFERTDFDQVRSLMENSDRCQDIRNLAFLGIAYNTLLPIAEIARIRVKDISRTDGGRMLIHIGRTKTLVSTAGVEKALSLGVTKLVERWISVSGVADDPNNYLFCRVRKNGVAAPSATSQLSTRALEGIFEATHRLIYGAKDDSGQRYLAWSGHSARVGAARDMARAGVSIPEIMQAGGWTNVNIVMNYIRNLDSETGAMVRLLEDGD
For B3, the “Median dimer activity” value in data set [1] is 94%; in data set [2], 47%.

B4: Cre recombinase monomer with H289K mutation (protein)
chain: MSNLLTVHQNLPALPVDATSDEVRKNLMDMFRDRQAFSEHTWKMLLSVCRSWAAWCKLNNRKWFPAEPEDVRDYLLYLQARGLAVKTIQQHLGQLNMLHRRSGLPRPSDSNAVSLVMRRIRKENVDAGERAKQALAFERTDFDQVRSLMENSDRCQDIRNLAFLGIAYNTLLRIAEIARIRVKDISRTDGGRMLIHIGRTKTLVSTAGVEKALSLGVTKLVERWISVSGVADDPNNYLFCRVRKNGVAAPSATSQLSTRALEGIFEATHRLIYGAKDDSGQRYLAWSGKSARVGAARDMARAGVSIPEIMQAGGWTNVNIVMNYIRNLDSETGAMVRLLEDGD
As for B4, the results for the “Median dimer activity” value in data set [1] and in data set [4] were 95% and 74%, respectively.

B5: Cre recombinase monomer with K201Y mutation (protein)
chain: MSNLLTVHQNLPALPVDATSDEVRKNLMDMFRDRQAFSEHTWKMLLSVCRSWAAWCKLNNRKWFPAEPEDVRDYLLYLQARGLAVKTIQQHLGQLNMLHRRSGLPRPSDSNAVSLVMRRIRKENVDAGERAKQALAFERTDFDQVRSLMENSDRCQDIRNLAFLGIAYNTLLRIAEIARIRVKDISRTDGGRMLIHIGRTYTLVSTAGVEKALSLGVTKLVERWISVSGVADDPNNYLFCRVRKNGVAAPSATSQLSTRALEGIFEATHRLIYGAKDDSGQRYLAWSGHSARVGAARDMARAGVSIPEIMQAGGWTNVNIVMNYIRNLDSETGAMVRLLEDGD
For B5, the results for the “Median dimer activity” value in data set [1] and in data set [5] were 90% and 26%, respectively.

B6: Cre recombinase monomer with W315Q mutation (protein)
chain: MSNLLTVHQNLPALPVDATSDEVRKNLMDMFRDRQAFSEHTWKMLLSVCRSWAAWCKLNNRKWFPAEPEDVRDYLLYLQARGLAVKTIQQHLGQLNMLHRRSGLPRPSDSNAVSLVMRRIRKENVDAGERAKQALAFERTDFDQVRSLMENSDRCQDIRNLAFLGIAYNTLLRIAEIARIRVKDISRTDGGRMLIHIGRTKTLVSTAGVEKALSLGVTKLVERWISVSGVADDPNNYLFCRVRKNGVAAPSATSQLSTRALEGIFEATHRLIYGAKDDSGQRYLAWSGHSARVGAARDMARAGVSIPEIMQAGGQTNVNIVMNYIRNLDSETGAMVRLLEDGD
B6: in data set [5], the “Median dimer activity” value amounted to 97%.

B7: Cre recombinase monomer with K201W mutation (protein)
chain: MSNLLTVHQNLPALPVDATSDEVRKNLMDMFRDRQAFSEHTWKMLLSVCRSWAAWCKLNNRKWFPAEPEDVRDYLLYLQARGLAVKTIQQHLGQLNMLHRRSGLPRPSDSNAVSLVMRRIRKENVDAGERAKQALAFERTDFDQVRSLMENSDRCQDIRNLAFLGIAYNTLLRIAEIARIRVKDISRTDGGRMLIHIGRTWTLVSTAGVEKALSLGVTKLVERWISVSGVADDPNNYLFCRVRKNGVAAPSATSQLSTRALEGIFEATHRLIYGAKDDSGQRYLAWSGHSARVGAARDMARAGVSIPEIMQAGGWTNVNIVMNYIRNLDSETGAMVRLLEDGD
Turning to B7, the “Median dimer activity” value in data set [1] amounted to 95%; in data set [4], 49%; in data set [2], 68%.

B8: Cre recombinase monomer with K201V mutation (protein)
chain: MSNLLTVHQNLPALPVDATSDEVRKNLMDMFRDRQAFSEHTWKMLLSVCRSWAAWCKLNNRKWFPAEPEDVRDYLLYLQARGLAVKTIQQHLGQLNMLHRRSGLPRPSDSNAVSLVMRRIRKENVDAGERAKQALAFERTDFDQVRSLMENSDRCQDIRNLAFLGIAYNTLLRIAEIARIRVKDISRTDGGRMLIHIGRTVTLVSTAGVEKALSLGVTKLVERWISVSGVADDPNNYLFCRVRKNGVAAPSATSQLSTRALEGIFEATHRLIYGAKDDSGQRYLAWSGHSARVGAARDMARAGVSIPEIMQAGGWTNVNIVMNYIRNLDSETGAMVRLLEDGD
Regarding B8, the “Median dimer activity” value in data set [1] worked out at 84%; in data set [4], 64%; in data set [6] it was 48%.
